Reference: patent publication US20060194720A1 (SANWA KAGAKU KENKYUSHO, published 2006)
Where no end group is shown, it is not given here.

Target: human GLP-1 receptor (human, UniProt P43220 24-463)
Test: cell-based or functional assay

Row | Binder | Cyclic AMP-producing activity, relative to naturally occurring GLP-1 (=100%), at 1 × 10^-10 M | Cyclic AMP-producing activity, relative to naturally occurring GLP-1 (=100%), at 1 × 10^-11 M | Cyclic AMP-producing activity, relative to naturally occurring GLP-1 (=100%), at × 10^-9 M
1 | HSEGTFTSDVSSYLEGQAAKEFIAWLVKGRRRRR-NH2 [[Ser^8]-GLP-1 (7-35)-Arg-Arg-Arg-Arg-Arg-NH2] | 64.7% | 34% | 106%
2 | HSEGTFTSDVSSYLEGQAAKEFIAWLVKGRKK-NH2 [[Ser^8]-GLP-1 (7-35)-Arg-Lys-Lys-NH2] | 104% | 53.2% | 88.8%
3 | HSEGTFTSDVSSYLEGQAAKEFIAWLVKGRRRRRR-NH2 [[Ser^8]-GLP-1 (7-35)-Arg-Arg-Arg-Arg-Arg-Arg-NH2] | 48.6% | 54.3% | 75.6%
4 | HSEGTFTSDVSSYLEGQAAKEFIAWLVKGR-NH2 [[Ser^8]-GLP-1 (7-35)-Arg-NH2] | 111% | 97.9% | 83.6%
5 | HSEGTFTSDVSSYLEGQAAKEFIAWLVKGKKR-NH2 [[Ser^8]-GLP-1 (7-35)-Lys-Lys-Arg-NH2] | 88.9% | 36.2% | 81.6%
6 | HSEGTFTSDVSSYLEGQAAKEFIAWLVKGKKKR-NH2 [[Ser^8]-GLP-1 (7-35)-Lys-Lys-Lys-Arg-NH2] | 96.6% | 45% | 86.7%

Now from value to binder:

Row | Cyclic AMP-producing activity, relative to naturally occurring GLP-1 (=100%), at 1 × 10^-10 M | Cyclic AMP-producing activity, relative to naturally occurring GLP-1 (=100%), at 1 × 10^-11 M | Cyclic AMP-producing activity, relative to naturally occurring GLP-1 (=100%), at × 10^-9 M | Binder
7 | 95.5% | 56.4% | 91.2% | HSEGTFTSDVSSYLEGQAAKEFIAWLVKGRRR-NH2 [[Ser^8]-GLP-1 (7-35)-Arg-Arg-Arg-NH2]
8 | 113% | 100% | 80.5% | HSEGTFTSDVSSYLEGQAAKEFIAWLVKGKR-NH2 [[Ser^8]-GLP-1 (7-35)-Lys-Arg-NH2]
9 | 87.4% | 74.5% | 95.9% | HSEGTFTSDVSSYLEGQAAKEFIAWLVKGRRRRRRRRR-NH2 [[Ser^8]-GLP-1 (7-35)-Arg-Arg-Arg-Arg-Arg-Arg-Arg-Arg-Arg-NH2]
10 | 55.6% | 8.8% | 92.6% | HSEGTFTSDVSSYLEGQAAKEFIAWLVKGKKKKKKKR-NH2 [[Ser^8]-GLP-1 (7-35)-Lys-Lys-Lys-Lys-Lys-Lys-Lys-Arg-NH2]
11 | 20.8% | 7.5% | 55.4% | HSEGTFTSDVSSYLEGQAAKEFIAWLVKGKKKKKKKKKKR-NH2 [[Ser^8]-GLP-1 (7-35)-Lys-Lys-Lys-Lys-Lys-Lys-Lys-Lys-Lys-Lys-Arg-NH2]
12 | 75.6% | -17% | 102% | HSEGTFTSDVSSYLEGQAAKEFIAWLVKGRRRR-NH2 [[Ser^8]-GLP-1 (7-35)-Arg-Arg-Arg-Arg-NH2]
13 | 55.3% | 7.9% | 63.4% | HSEGTFTSDVSSYLEGQAAKEFIAWLVKGKKKKKR-NH2 [[Ser^8]-GLP-1 (7-35)-Lys-Lys-Lys-Lys-Lys-Arg-NH2]
14 | 81.1% | 64.9% | 80.6% | HSEGTFTSDVSSYLEGQAAKEFIAWLVKGRRRRRRR-NH2 [[Ser^8]-GLP-1 (7-35)-Arg-Arg-Arg-Arg-Arg-Arg-Arg-NH2]
